Source: US20120322150

Key:
[1] = target: GST-hsGSK3β (UniProt P49841)
[2] = target: T1, GST-BIN2 (UniProt Q39011)
T1 sequence: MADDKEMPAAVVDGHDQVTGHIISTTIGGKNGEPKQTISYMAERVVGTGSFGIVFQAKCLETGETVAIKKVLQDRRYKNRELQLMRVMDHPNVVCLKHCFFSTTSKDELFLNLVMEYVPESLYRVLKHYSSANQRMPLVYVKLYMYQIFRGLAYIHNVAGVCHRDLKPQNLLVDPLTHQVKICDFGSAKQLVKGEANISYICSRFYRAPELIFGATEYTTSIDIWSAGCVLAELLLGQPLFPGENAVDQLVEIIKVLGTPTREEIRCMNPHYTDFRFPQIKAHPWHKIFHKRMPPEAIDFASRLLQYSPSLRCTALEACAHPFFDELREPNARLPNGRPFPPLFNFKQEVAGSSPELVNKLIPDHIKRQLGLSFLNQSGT

Chain of GST-hsGSK3β (P49841 whole entry, looked up): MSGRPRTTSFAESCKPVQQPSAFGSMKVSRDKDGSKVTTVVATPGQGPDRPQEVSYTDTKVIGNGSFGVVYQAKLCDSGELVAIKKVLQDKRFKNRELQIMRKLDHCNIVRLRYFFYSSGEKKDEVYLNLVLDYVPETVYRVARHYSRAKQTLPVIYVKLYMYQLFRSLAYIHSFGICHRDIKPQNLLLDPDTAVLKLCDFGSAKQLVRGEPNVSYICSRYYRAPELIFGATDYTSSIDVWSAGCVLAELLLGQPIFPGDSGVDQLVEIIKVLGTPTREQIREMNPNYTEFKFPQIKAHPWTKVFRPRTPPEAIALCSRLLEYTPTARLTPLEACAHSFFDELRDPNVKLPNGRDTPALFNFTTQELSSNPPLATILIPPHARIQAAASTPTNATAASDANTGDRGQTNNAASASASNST

MBP-hsPPP1cc
phosphorylation status of tyrosine 216 of hsGSK3β (immunoblot with anti-phospho-tyrosine 216 antibody) [1]: human protein phosphatase 1 gamma (PP1γ) dephosphorylates tyrosine 216 of human GSK3 beta in vitro

PP1 purified from E. coli
dephosphorylation of BIN2 tyrosine200 [2]: The presence of PP1 increased dephosphorylation of BIN2 tyrosine200
